Laboratory results taken from patent US11633499B2, “Anti-TMEM-180 antibody, anticancer drug and cancer testing method” (NATIONAL CANCER CENTER JAPAN, priority 2016, dated 2023).

Key:
normal stroma = assay: Reactivity to normal stroma; type: binding; details: compared with the 1361 antibody
[1] = tested on: cell lines derived from cancers (ATCC and JCRB); assay: Reactivity of antibodies to cancer-derived cell lines by FACS (Table 23); type: binding
[2] = tested on: normal tissues (skin, brain, small intestine, liver, heart, lung, kidney); assay: Immune histochemistry of normal human tissues; type: binding
Protocol: The paraffin sections were prepared from the tissue specimens in the same way as shown in Example 6 according to a routine procedure. The prepared sections were subjected to reactions with 1 μg/mL of one of the above antibodies. An HRP-labelled anti rat antibody was used as a secondary antibody, which emitted light with DAB. The observation was performed after hematoxylin staining.

[3] = tested on: cell lines derived from cancers (ATCC and JCRB); assay: Reactivity of antibodies to cancer-derived cell lines by FACS (Table 23); type: binding; remark: listed apart in the source
Protocol: Cancer cells targeted for measurement were cultured in medium and then added to a V-bottom 96-well plate (Corning Incorporated) to a concentration of 1×10^5 cells/well. The plate was centrifuged for 3 minutes at 440×g and 4° C. followed by removing the supernatant, adding antibody-producing hybridoma culture supernatant or antibody solution to the cell pellet at 50 μL/well and suspending therein. After allowing to react for 45 minutes on ice, the plate was washed three times with a mixture of 0.1% BSA, 2 mM EDTA and PBS at 200 μL/well. The supernatant was removed and secondary antibody was added to the cell pellet at 50 μL/well followed by suspending the cells therein. ALEXAFLUOR 647@ (fluorescent compound) goat anti-rat IgG (H-L) (Life Technologies Corporation) was used for the secondary antibody after diluting 400-fold with a mixture of 0.1% BSA, 2 mM EDTA and PBS. After allowing to react for 45 minutes on ice, the plate was washed three times with a mixture of 0.1% BSA, 2 mM EDTA and PBS at 200 μL/well. After removing the supernatant, 50 ng/mL of propidium iodide, 0.1% BSA, 2 mM EDTA and PBS were added to the cell pellet at 250 µL/well followed by suspending therein. The cells stained in this manner were measured using a flow cytometer such as the Guava easyCyte 8HT (Merck Millipore Corporation) followed by analysis of the resulting data using FlowJO (Tomy Digital Biology Co., Ltd.). FACS analysis was carried out using colon cancer, brain tumor and hematologic cancer.
Cancer-detection rates were tested using monoclonal antibodies (the 669 antibody, 1052 antibody, 1105 antibody, and 1361 antibody).
In this Example, the reactivity of the antibodies to the cell lines derived from cancers which were obtained from ATCC and JCRB was analyzed by FACS.

[4] = biological target: T1, exosomes presenting TMEM-180 from DLD-1 cell line (Homo sapiens, UniProt Q14CX5); assay: Detection of TMEM-180 exosomes in culture supernatant (immobilized anti-TMEM-180 antibody, anti-CD9 detection); type: binding; details: immobilized antibody 5 μg/mL; detection with anti-CD9 antibody; FIG. 18
T1 construct: endogenous in cells; host or cells: DLD-1 colon cancer cell line (parent / wild type); culture supernatant exosomes in A20
T1 sequence (Q14CX5 1-517): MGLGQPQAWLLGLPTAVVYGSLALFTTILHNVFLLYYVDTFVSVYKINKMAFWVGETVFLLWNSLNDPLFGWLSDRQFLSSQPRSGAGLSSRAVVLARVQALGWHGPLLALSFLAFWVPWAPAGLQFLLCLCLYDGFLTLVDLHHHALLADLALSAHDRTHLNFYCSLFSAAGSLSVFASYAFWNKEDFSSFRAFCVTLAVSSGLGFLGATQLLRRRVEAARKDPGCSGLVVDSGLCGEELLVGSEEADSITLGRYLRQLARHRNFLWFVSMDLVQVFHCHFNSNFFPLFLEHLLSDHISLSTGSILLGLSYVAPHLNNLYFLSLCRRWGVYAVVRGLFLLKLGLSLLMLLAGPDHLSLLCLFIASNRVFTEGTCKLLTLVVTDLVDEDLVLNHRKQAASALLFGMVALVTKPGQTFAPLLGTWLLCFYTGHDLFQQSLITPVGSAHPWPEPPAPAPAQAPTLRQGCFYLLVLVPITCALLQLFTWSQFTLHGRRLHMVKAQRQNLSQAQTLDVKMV
From the text: Thus, the inventors constructed a system for detecting exosomes in the culture supernatant. In this system, an anti-TMEM-180 antibody was immobilized on the surface of the plate, and exosomes containing TMEM-180 which were bound to the immobilized antibody were detected with an anti-CD9 antibody which CD9 is an exosome maker. The DLD-1 cell line (also referred to as “wild type DLD-1 cell line”) was used as cells. The TMEM-180 knockdown DLD-1 cell line and K562 cell line were used as negative controls.
Specifically, an anti-TMEM-180 antibody was diluted with phosphate buffer such that the concentration will be 5 μg/mL, and then added to a 96 well plate (Maxisorp #442404, Thermo Fisher co., Ltd.) at 50 μL/well. The immobilization reaction was performed by incubation for 2 hours at room temperature or for overnight at 4° C. The plate after the immobilization was washed three times with 300 μL/well of a plate washing solution. The plate was blocked with 200 μL/well of a blocking agent (1% BSA/TBS-T), and allowed to stand for 1 hour at room temperature or for overnight at 4° C. […] Then, the optical density at 450 nm was measured with a plate reader.

Wildtype DLD-1 cells = assay: Internalization of the antibody; type: cell-based, human; details: 488-labelled antibody; 37° C.; 1, 3 or 6 hours; FIG. 25
Protocol: Wildtype DLD-1 cells were plated on a 96-well plate at 5,000 cells/well. The plate was incubated at 37° C. for 18 hours. After washing, a 488-labelled 669 antibody was added to the wells at 2 μL/well and was incubated at 37° C. for certain hours (1 hour, 3 hours, or 6 hours). After the wells were washed three times, a rabbit anti 488 antibody was added at 2 μL/well to stand still at 4° C. for 30 minutes to quench the fluorescence derived from the antibodies binding to the cell surface. After the wells were washed three times, 4% PFA was added at 100 μL/well to stand still at room temperature for 10 minutes. After the wells were washed three times, DAPI (1/500 dilution) was added to the wells at 100 μL/well to stand still at room temperature for 5 minutes. After the wells were washed three times, the wells were subjected to photographing or Array Scan analysis.

B1: 1361-7 clone: variant having an amino acid substitution S82A in the 1361 antibody (antibody, V domains shown)
VH: EVQLVESGGGLVQPGRSLKLSCVASGFTFNNYWMTWIRQAPGKGLEWVASITNTGGSTYYPDAVKGRFTISRDYAKSTLYLQMNSLRSEDTATYYCTRAGYSSYPDYFDYWGQGVMLTVSS
VL: NIQMTQSPSLLSASVGDRVTLSCKAGQNIYNYLAWYQQKLGEAPKLLIYNANSLQTGIPSRFSGSGSGTDFTLTISSLQPEDVATYFCQQYSSGWTFGGGTKLELK
B1 was tested, and the “reactivity to normal stroma” value (normal stroma) was “almost the same as that of the 1361 antibody”.

B2: clone 1361: rat IgG anti-TMEM-180 monoclonal antibody; variable regions SEQ ID NOs: 70 and 71 (antibody, V domains shown)
VH: MDIRLSLVFLVLFIKGVQCEVQLVESGGGLVQPGRSLKLSCVASGFTFNNYWMTWIRQAPGKGLEWVASITNTGGSTYYPDSVKGRFTISRDYAKSTLYLQMNSLRSEDTATYYCTRAGYSSYPDYFDYWGQGVMLTVSS
VL: MMAPVQLLGLLLLWLPAMRCNIQMTQSPSLLSASVGDRVTLSCKAGQNIYNYLAWYQQKLGEAPKLLIYNANSLQTGIPSRFSGSGSGTDFTLTISSLQPEDVATYFCQQYSSGWTFGGGTKLELK
B2 was tested, and the “Detection Sensitivity of Cancers, P/N” value ([1]; Cancer Type: Bladder) was “(3/4)”, the “Detection Sensitivity of Cancers, Percentage (%)” value ([1]; Cancer Type: Bladder) was 75% and the “Detection Sensitivity of Cancers, Percentage (%)” value ([1]; Cancer Type: Brain) was 100%. For the same molecule, the “Detection Sensitivity of Cancers, P/N” value ([1]; Cancer Type: Brest) was “(2/6)”, the “Detection Sensitivity of Cancers, Percentage (%)” value ([1]; Cancer Type: Brest) was 33% and the “Detection Sensitivity of Cancers, P/N” value ([1]; Cancer Type: Gastric) was “(5/8)”. For the same molecule, the “Detection Sensitivity of Cancers, Percentage (%)” value ([1]; Cancer Type: Gastric) was 63%, the “Detection Sensitivity of Cancers, P/N” value ([1]; Cancer Type: Kidney) was “(3/3)” and the “Detection Sensitivity of Cancers, Percentage (%)” value ([1]; Cancer Type: Kidney) was 100%. For the same molecule, the “Detection Sensitivity of Cancers, P/N” value ([1]; Cancer Type: Pancreas) was “(9/9)”, the “Detection Sensitivity of Cancers, Percentage (%)” value ([1]; Cancer Type: Pancreas) was 100% and the “Detection Sensitivity of Cancers, P/N” value ([1]; Cancer Type: Prostate) was “(2/3)”. For the same molecule, the “Detection Sensitivity of Cancers, Percentage (%)” value ([1]; Cancer Type: Prostate) was 67%, the “staining of normal tissues from skin, brain, small intestine, liver, heart, lung and kidney” value ([2]; 1 μg/mL, paraffin sections) was “negative” and the “reactivity to normal skin tissues” value ([2]; FIG. 13) was “low reactivity”. The “Detection Sensitivity of Cancers, P/N” value ([3]; Cancer Type: Brain) was “(7/7)”, the “Detection Sensitivity of Cancers, P/N” value ([3]; Cancer Type: Colon) was “(7/10)” and the “Detection Sensitivity of Cancers, Percentage (%)” value ([3]; Cancer Type: Colon) was 70%. The “recognition of cancers, summary of Table 23” value ([3]; comparison of 1361, 669, 1052, 1105) was “highest sensitivity” and the “detection of exosomes presenting TMEM-180 in DLD-1 culture supernatant” value [4] was “successfully detected”.

B3: clone 669: rat IgM anti-TMEM-180 monoclonal antibody; variable regions SEQ ID NOs: 78 and 79 (antibody, V domains shown)
VH: MGWICIIFLVATATGVHSQVKLLQSGAALVKPGASVKMSCKASGYTFTDYWVSWVKQSHGKSLEWIGEIYPNSGATNFNENFKGKATLTVDKSTSTAYMELSRLTSEDSAIYYCTRDGTMGIAYYFDYWGQGVMVTVSS
VL: MMAAVQLLGLLLLWVPAMRCDIQMTQSPSFLSASVGDRVTINCKASQNINRYLNWYQQKLGEAPKLLIYNANSLQTGIPSRFSGSGSGTDFTLTISSLQPEDVATYFCLQHNSWPYTFGAGTKLELK
B3 was tested, and the “Detection Sensitivity of Cancers, P/N” value ([1]; Cancer Type: Pancreas) was “(3/9)”, the “Detection Sensitivity of Cancers, Percentage (%)” value ([1]; Cancer Type: Pancreas) was 33% and the “Detection Sensitivity of Cancers, P/N” value ([3]; Cancer Type: Colon) was “(3/10)”. For the same molecule, the “Detection Sensitivity of Cancers, Percentage (%)” value ([3]; Cancer Type: Colon) was 30%, the “detection of exosomes presenting TMEM-180 in DLD-1 culture supernatant” value [4] was “successfully detected” and the internalization into cells (Wildtype DLD-1 cells) was “concentrated at a high concentration in the cells”.
